The nanobody polyreactivity screen of Harvey et al. (2022)

Assay: yeast display, Sf9 membrane polyspecificity reagent, FACS + sequencing; frameworks hold sequencing errors
How it was run: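 In a synthetic yeast display library (Saccharomyces cerevisiae BJ5465), nanobody expression was induced with galactose for 36–48 hours. FACS gates were set low and high (top ~1%) using anti-HA fluorescence for expression and streptavidin fluorescence for binding of the Sf9 membrane reagent. Each polyreactivity label is drawn from the gate of origin.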

Sequence	polyreactivity (PSR sort gate)
QVQLVESGGALGQAGGSLRLSCAASGFTFRIYDMGWYRHAPGKETELVAAITNGGSTDYADSVKGRFTISRDNAKNTVYLQMNSLKPEDTAVYYCAADVTYQVYDLVSVWYDYWGQGTQVTVSS	low polyreactivity
QVQLVESGGALVHAGGSLRLSCAASGSIFYQYDMGWYRQAPLKERELVAAISRSGTRTYYEDSVKGRFTISRDNAKNTVYLKMNSLKPEDTAVYYCARRYRSGYGYWGQGTQVTVSS	high polyreactivity
QVQLVESGGALVQAGGRLRLSCAASGTFERKVMGWYIHAPGKERELVAAISRSGSSTYYADSLKGRFTISRDNAKNTVYLQMNSLKPEDTAVYYCAARGTKQHFNYWGQGTQVTVSS	high polyreactivity
QVQLVESGGALVQAGGSHRLSCAASGRTFHFNAMGWYRPATGKERELVAAITNSGGRTSYADSVKGRFTISRDNAKNTVYLQMNSMKPEDTAVYYCNVEVTYSSGKYDYWGPGTQVTVSS	low polyreactivity
QVQLVESGGALVQAGGSLRISCAASGRTFQVNTMGWYRQAPGKEMELVAAISSAGRTYYADSVKGRFTISRDNAKNTVYLQMNSLKPEDTAVYYCSAAWSYSYWKARYGYWGQGTQVTVSS	high polyreactivity
QVQLVESGGALVQAGGSLRLICAASGSIFGHNAMGWYRQAPGKERELVAAISRGTRTNYADSVKGRFTISRDNAKNTFYVQMNSLKQVDSAVYYCNLQPGRGPYVGRKYGYWGQGTQVTVSS	high polyreactivity
QVQLVESGGALVQAGGSLRLICAASGSTFDSNVKGWSRTAPGKERELVAVINGSGSNTYYADSVKGRFTISRDNAKNTVYLQMNSLKPEDTAVYYCNKRYWGGRYGYDYWGQGTQVTVSS	high polyreactivity
QVQLVESGGALVQAGGSLRLSCAASARIFGRNAMGWYTQAPGKERELVAAISSGGSTYYADSVKGRFTISRDNAKKTVYLQMNSLKPEDTAVYYCAVRGYYFNGGRAFESWGQGTQVTVSS	high polyreactivity
QVQLVESGGALVQAGGSLRLSCAASGFIFDAYAMGWYRQAPGKERELVPAIDYSGGNTYYADSVKGRFTISRDYAKNTVYLQMNSLKTEDTAVYYCNADYAGSFWSREYDYWGQGTQVTVSS	low polyreactivity
QVQLVESGGALVQAGGSLRLSCAASGFTFAWYAMGWYRQAPGKERELVAAISRSGGSTYYADSVKGRFTISRDNAKNTVYLQMNSLKPEDTAVYYCATRVYSYRKAGWYDYWGQGTQVTVSS	high polyreactivity
QVQLVESGGALVQAGGSLRLSCAASGFTFRTYAMGWYRQAPRKERELVADISGSGGSTYYADSVKGRFTISRDNPKNTVYLQMNSLKPEDTAVSYCAADYASWSNWGYEYWGQGTQVTVSS	high polyreactivity
QVQLVESGGALVQAGGSLRLSCAASGGILQYNAMGWYRQAPGKEREFVAAITTSGGSTYYADSVKGRFTISRDNAKNTVYLQMNSLKPEDTAVYYCAADSWWGIYYSGYDYWGQGSQVTVSS	low polyreactivity
QVQLVESGGALVQAGGSLRLSCAASGIIFYSYAMGWYRQAPGKERELVAAISNNGGSTYADSVKGRFTISRDNAKNSVYLQMKSVKPEDTAVYYCAADPTGGVGFDGYYWGQGTQVTVSS	low polyreactivity
QVQLVESGGALVQAGGSLRLSCAASGLTFEVYAMGWYRQAPGKESELVAAISSGGGSTYYADSVKGRFTISRDNAKNTVYLQMNSLKPEDTEVYYCNAVAKLYYWRYDYWGKGTQVTVSS	low polyreactivity
QVQLVESGGALVQAGGSLRLSCAASGRIFRKNAMGWYRQAPGKERELGAAISGGGGSTYYAVSVKGRFTISRDNAKNTVYLQMNSLQPEDTAVYYCNAPILPGYWGQGTQVTVSS	high polyreactivity
QVQLVESGGALVQAGGSLRLSCAASGRIFWHNAMGWYRQAPGKERELVAAISSRGGSTSYADSVKGLFTISRDNAKNTVYLQMNSLKPEETAVYYCNARNQAYYRVWGYRGDYWGQGTQVTVSS	low polyreactivity
QVQLVESGGALVQAGGSLRLSCAASGRTYWSYNIGWYRKAPGKERELVAAITSSGGTTNYADSVKGRFTISRDNAKNTVYLQMNRLKREDTAVYYFAAYSWYFGSRYDYWGQGTQVTVSS	low polyreactivity
QVQLVESGGALVQAGGSLRLSCAASGSIFRYYAMGWYRQAPVKERELVAAIDFSGGRTYYADSVKGRFTISRDNAKNTVYLQMNRLKPEDTAVYDCARKYTTAYGSTFYYWGQGTQVSVSS	high polyreactivity
QVQLVESGGALVQAGGSLRLSCAASGSIFSRNAMGWYRTAPGKERELVAGISTGGSTNYADSVKGRFTISRDNAKNTVYLQMTSLKPEDTAVYYCAAPLAYEGDYWGQGTQVTVSS	low polyreactivity
QVQLVESGGALVQAGGSLRLSCAASGSIFVPYTMGWYRQAPGKERELVSSISYSGGTTYYADSVKGRFTISRDYAKNTVYLQMNSLKPEDTAVYYCAADWDESYSYRRYSHYDYWGQGTQVTVSS	low polyreactivity
QVQLVESGGALVQAGGSLRLSCAASGSTFGRYAMGWYRQAPGKERELVATIRSGGSTTYADSVKGRFTISRDNAKNTVYLQMNSLKREDTAVYYCAAGTKPSYYYWGQGTQVTVSS	low polyreactivity
QVQLVESGGALVQAGGSLRLSCAASGSTFHRNAMGWYRQAPGKERELVAAITSGGSTNYADSVKGRFTISRDNAMNTVYLQLNSLKPEDTAVYSCAKDYRHYNRGWYDYWGQGTQVTVSS	low polyreactivity

Sequence	polyreactivity (PSR sort gate)
QVQLVESGGALVQAGGSLRLSCAASGSTIGDNAMGWYRQAPGKERELVASISWSGASTYYADSVKGRFTISRDNAKNTFYLPMKSLKPEETEVYYCAVYYSYFSHLYHLLFYYWGQGTQVTVSS	low polyreactivity
QVQLVESGGALVQAGGSLRLSCAASGSTLRANAMGWYRQAPGKERELVARITSGGSTYYADSVKGRFTISRDNAKNTVYFQMNSLKPEDTAVYYCAATYKLAYRRGYWGQGTQVTVSS	high polyreactivity
QVQLVESGGALVQAGGSLRLSCDASGSTLWDYAMGWYRQAPRKERELVAASTQSTGDTHYADSVKGRFTLSRDNAKNTVYFQMNSLKPEDTAVYYCAADSYLSVYDPYGYWGQGTQVTVSS	low polyreactivity
QVQLVESGGALVQAGGSLRLTCAASGRTLYLYAMGWYRQAPGKEREFVAAINSSGDSTYYADSVKGRFTISRDNAKNTVYLQMNSLNPEDTAVYYCNVAWFRHEYDYWGQGTQVTVSS	low polyreactivity
QVQLVESGGALVQAGGSLRVSCAASGRIFRRNAMGWDRPAPGKERELVAGIDRSGGSTYYADSVKRRFTISRDNGKKTVYIQMNSLKPEDTAVYYCNTRAPYRVKSSGYWGLGTQVTVSS	high polyreactivity
QVQLVESGGALVQAGGSVRLSCAASGRTFGTYAMGWYRQAPGKERELVAAISTRGGRTFYADSVKGRFTISRDNAKNTVYLQMNSLKPEDTAVYYCAAYYKYYEYDYWGQVTQVTVSS	high polyreactivity
QVQLVESGGCIVQAGGSLRLSCAASGFTFRTNTKGWYRQAPGKDRELVAAISRSGGSTYYADSVKGRFTISRDNAKNTVYLQMNSLKPEDTAVYDCNAVGRSDSYYLAYNYWGQGTQVTVSS	high polyreactivity
QVQLVESGGCIVQAGGSLRLSCAASGRTFRAYAMGWYRQAPGKEREFVAAITKRGGGTYYADSVKGRFTISRDNAKNTVYLQMNILKPEDTAVYYCAAESGSWYSRMDYWGQGTQVTVSS	high polyreactivity
QVQLVESGGCIVQAGVSLRLSCSSSGRTFGYNAMGLYRNAPGKERELVAAINWSGASKYYADSVKGRFTISRDNAKNTVYLQMNSLKPEDTAVYYCAADYSYIYGFDYWGQGTQVTVSS	low polyreactivity
QVQLVESGGCLDQAGGSLRLSCAASGFTFYNYAMGWYRQEPGKETQLVAAITRNGGRTYYADSVKWRFTISRDNAKYTVYLQMNSLKPEDTAFYYCASKKYKTVRYDYWGQGTQGTVSS	high polyreactivity
QVQLVESGGCLVPAGGSLRLSCAASGHTFSSYAMGWYRQAPGKERELVAAISVSATRTYYADSVKGRFTISRDNAKNTVYLQMNSLKPEDTAVFYCAARPVQFTYGYWGQGTQVTVSS	high polyreactivity
QVQLVESGGCLVQAGCSHRLSCAASGSTFGHNAMGWYRQAPGKERELVAAISWSGGRTSYADSVKGRFTISRDHAKNTVYLQLNSLKPEDTAVYYCAARSWRKGDYWGQGTQVTVSS	high polyreactivity
QVQLVESGGCLVQAGCSLRLSCAASGRIFGYYVMGWYRQAPGKERELVAAIRSSADSTYYADSVKGRFTISRDNAKNTVYLQMNSLKPEDTAVYYCAAQSPAYYTKSYWGQGTQVTVSS	low polyreactivity
QVQLVESGGCLVQAGCSRRLSCAASVRIFARNTMGWSRQAPGKERELVAAISWGGGRTYYADSVKGRFTISRDNAKNTVYLQMNSLKPEDTAVYYCAAETLQIPRGEYWGQGTQVTVSS	low polyreactivity
QVQLVESGGCLVQAGGRLRLSCAASGIIFYLYAMAWYRQARGKVWELVATISRRGGSTYYADSVKGRFTISRDNAKNTVYLQMNSLKPDDTAVYYCATGHFSVGRSFSSGSYEYWGQGTQVTVSS	high polyreactivity
QVQLVESGGCLVQAGGRLRLSCAASGLTLYKNGMGWYRQAPGKERELVAVISRSGGRTYYADSVKGRFTISRDNAKNTVFLHMNSLKPEDTAVYYCAALQYGPRYTYYYWGQGTQVTVSS	high polyreactivity
QVQLVESGGCLVQAGGRLRLSCAASVRTFRSYAMGWYRQAPGKERELVAAISWSGGSTYYADSVKGRFTISRDNAKNTVYLQMTSLKPEDTAGYYCAAEVYYTYVYILDYWGQGTQVTVSS	high polyreactivity
QVQLVESGGCLVQAGGRLRLSSAASGRTIGWNAMGWYRQAPGTEREFVAAITISGGDTYYADSVKGRFTISRDNAKNNVYFQMNSLKPEDTAVYYCAATSTWRPSFEMDYWGQGTQVTGSS	low polyreactivity
QVQLVESGGCLVQAGGSLRFICAASGRIFDDNAMGWYRPAPGKERELVATISSTGGRTYYADSLKGRFTISRDNAKNNVYLQMNSLKPEDTAVYYCAARRRQGGYYYWGQGTQVTVSS	high polyreactivity
QVQLVESGGCLVQAGGSLRISCAASGRIFSRNAMGWYRQAPGKEREWVAAITRSSGTTYYADSVKGRFTISRDNAKNTVYLQMNSLKPEDTAVYYCAAGHTYGGYPRPSDYWGQGTQVTVSS	low polyreactivity
QVQLVESGGCLVQAGGSLRLICAASGSIFDINAMGWYSQAPGKERELVADIRRGDSTNYADSVKGRFTISRDNAKNTVYLQMNSLKPEDTAVYYCAARWRRSIYGFYPQRPYDYWGQGTQVTVSS	high polyreactivity
